The target in the experiment is N-terminal SmBiT-tagged SETD1A FLOS domain fragment (Sm-FO3). Description: split-NanoLuciferase-complementation assay with non-tagged competitor. Particulars: Sm-FO3 + N200-Lg with non-tagged competitor construct; parent: est. 3.6; read off a plot.

Turning to “non-tagged BOD1L Shg1 fragment N200 (competitor) (from UniProt Q8NFC6) W104A”, the response is 7.6 RLU, x10^5.

Values taken from paper PMC11381347.
